Test results published in publication PMC9482650, “Quantitative fragmentomics allow affinity mapping of interactomes” (Nature Communications, 2022).

Tests used:
Experiment in all cases: holdup assay
Set-up in all cases: key: below the threshold = too weak to quantify, mostly under pKd 3.1 to 4
Details in all cases: plain residues with an end cap or a label only (N-terminal biotin on a linker: ado-ado)
AHNAK1, Q09666 = molecular target: AHNAK1, Q09666
APBA3_1, O96018 = molecular target: T1, APBA3_1, O96018
T1 sequence (O96018 389-490, limits assumed, looked up): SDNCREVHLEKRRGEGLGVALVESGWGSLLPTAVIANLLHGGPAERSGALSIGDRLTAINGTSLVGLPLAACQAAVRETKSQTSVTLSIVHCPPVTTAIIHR

DLG1_3, Q12959 = molecular target: DLG1_3, Q12959
DLG3_3, Q92796 = molecular target: T2, DLG3_3, Q92796
T2 sequence (Q92796 374-475, limits assumed, looked up): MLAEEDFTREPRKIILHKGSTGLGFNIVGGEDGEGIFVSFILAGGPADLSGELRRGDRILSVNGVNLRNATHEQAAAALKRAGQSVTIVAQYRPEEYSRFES

DLG4_3, P78352 = molecular target: DLG4_3, P78352
DLG5_1, Q8TDM6 = molecular target: DLG5_1, Q8TDM6
FRMPD3, Q5JV73 = molecular target: FRMPD3, Q5JV73
GRASP, Q7Z6J2 = molecular target: GRASP, Q7Z6J2
IL16_4, Q14005 = molecular target: IL16_4, Q14005
Inadl_2, Q8NI35 = molecular target: Inadl_2, Q8NI35
Inadl_6, Q8NI35 = molecular target: Inadl_6, Q8NI35
Inadl_9, Q8NI35 = molecular target: Inadl_9, Q8NI35
LIN7B, Q9HAP6 = molecular target: T3, LIN7B, Q9HAP6
T3 sequence (Q9HAP6 88-185, limits assumed, looked up): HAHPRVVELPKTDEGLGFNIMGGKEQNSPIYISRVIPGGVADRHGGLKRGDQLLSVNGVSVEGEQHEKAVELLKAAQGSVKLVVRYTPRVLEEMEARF

LRRC7, Q96NW7 = molecular target: T4, LRRC7, Q96NW7
T4 sequence (Q96NW7 1440-1537, limits assumed, looked up): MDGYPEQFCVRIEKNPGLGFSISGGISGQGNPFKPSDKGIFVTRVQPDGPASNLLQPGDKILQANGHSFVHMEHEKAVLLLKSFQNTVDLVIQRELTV

MAGI1_2, Q96QZ7 = molecular target: MAGI1_2, Q96QZ7
MAST1, Q9Y2H9 = molecular target: MAST1, Q9Y2H9
MPDZ_10, O75970 = molecular target: T5, MPDZ_10, O75970
T5 sequence (O75970 1624-1722, limits assumed, looked up): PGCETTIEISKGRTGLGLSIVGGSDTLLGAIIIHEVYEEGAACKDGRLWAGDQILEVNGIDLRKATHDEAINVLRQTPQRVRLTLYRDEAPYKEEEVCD

MPP6, Q9NZW5 = molecular target: T6, MPP6, Q9NZW5
T6 sequence (Q9NZW5 125-219, limits assumed, looked up): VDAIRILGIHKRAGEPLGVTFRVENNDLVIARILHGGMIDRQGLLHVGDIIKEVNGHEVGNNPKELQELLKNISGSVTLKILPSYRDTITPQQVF

NHERF2_2, Q15599 = molecular target: NHERF2_2, Q15599
NHERF4_1, Q86UT5-2 = molecular target: NHERF4_1, Q86UT5-2
NOS1, P29475 = molecular target: NOS1, P29475
PARD3B_1, Q8TEW8 = molecular target: T7, PARD3B_1, Q8TEW8
T7 sequence (Q8TEW8 196-299, limits assumed, looked up): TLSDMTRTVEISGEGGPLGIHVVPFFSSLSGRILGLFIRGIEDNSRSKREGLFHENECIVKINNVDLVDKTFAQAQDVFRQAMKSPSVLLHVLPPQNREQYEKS

PARD3_3, Q8TEW0 = molecular target: PARD3_3, Q8TEW0
RADIL, Q96JH8 = molecular target: T8, RADIL, Q96JH8
T8 sequence (Q96JH8 971-1071, limits assumed, looked up): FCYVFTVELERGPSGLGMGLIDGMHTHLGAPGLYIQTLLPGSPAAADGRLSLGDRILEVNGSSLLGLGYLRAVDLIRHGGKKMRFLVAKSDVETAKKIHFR

SNTG2, Q9NY99 = molecular target: T9, SNTG2, Q9NY99
T9 sequence (Q9NY99 68-166, limits assumed, looked up): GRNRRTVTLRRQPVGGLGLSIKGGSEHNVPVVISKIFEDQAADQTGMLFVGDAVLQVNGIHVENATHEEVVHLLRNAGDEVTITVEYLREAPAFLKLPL

SNX27, Q96L92 = molecular target: SNX27, Q96L92
SYNJ2BP, P57105 = molecular target: T10, SYNJ2BP, P57105
T10 sequence (P57105 8-110, limits assumed, looked up): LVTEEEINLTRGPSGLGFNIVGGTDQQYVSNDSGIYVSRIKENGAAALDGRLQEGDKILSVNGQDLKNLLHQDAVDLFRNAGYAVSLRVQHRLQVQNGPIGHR

TJP2_1, Q9UDY2 = molecular target: TJP2_1, Q9UDY2
TJP2_1, Q9UDY2, sequence (Q9UDY2 24-128): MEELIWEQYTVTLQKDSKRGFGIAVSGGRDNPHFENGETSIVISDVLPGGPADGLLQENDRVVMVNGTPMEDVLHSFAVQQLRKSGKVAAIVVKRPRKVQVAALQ

DLG1_3, Q12959, sequence (Q12959 457-571): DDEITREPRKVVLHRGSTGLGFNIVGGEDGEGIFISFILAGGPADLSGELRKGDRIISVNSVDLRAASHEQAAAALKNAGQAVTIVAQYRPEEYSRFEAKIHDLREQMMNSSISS
NHERF4_1, Q86UT5-2, sequence (Q86UT5 other isoform, or with tags, fused parts or gaps): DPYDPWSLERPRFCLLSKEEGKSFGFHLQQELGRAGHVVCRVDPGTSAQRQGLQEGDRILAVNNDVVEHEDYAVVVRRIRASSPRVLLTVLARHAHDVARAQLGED
MAGI1_2, Q96QZ7, sequence (Q96QZ7 456-580): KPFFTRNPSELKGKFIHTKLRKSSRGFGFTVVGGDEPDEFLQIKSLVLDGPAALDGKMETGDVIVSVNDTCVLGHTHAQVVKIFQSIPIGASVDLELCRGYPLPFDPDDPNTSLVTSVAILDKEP
GRASP, Q7Z6J2, sequence (Q7Z6J2 96-193): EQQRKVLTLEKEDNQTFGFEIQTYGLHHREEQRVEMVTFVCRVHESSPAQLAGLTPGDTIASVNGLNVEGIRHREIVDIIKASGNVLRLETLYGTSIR
FRMPD3, Q5JV73, sequence (Q5JV73 12-100): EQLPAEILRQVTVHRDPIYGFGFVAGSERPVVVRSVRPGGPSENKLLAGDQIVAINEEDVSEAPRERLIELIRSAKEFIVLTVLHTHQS
PARD3_3, Q8TEW0, sequence (Q8TEW0 582-685): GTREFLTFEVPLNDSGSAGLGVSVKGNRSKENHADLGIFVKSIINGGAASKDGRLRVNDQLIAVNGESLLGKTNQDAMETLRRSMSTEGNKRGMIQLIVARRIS
MAST1, Q9Y2H9, sequence (Q9Y2H9 962-1065): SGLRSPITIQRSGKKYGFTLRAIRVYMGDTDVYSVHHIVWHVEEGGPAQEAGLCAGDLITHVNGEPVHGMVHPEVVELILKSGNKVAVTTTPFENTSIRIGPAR
AHNAK1, Q09666, sequence (Q09666 4-100): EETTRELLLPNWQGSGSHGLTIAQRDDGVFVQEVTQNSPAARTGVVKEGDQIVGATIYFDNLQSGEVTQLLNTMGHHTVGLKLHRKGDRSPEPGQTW
Inadl_6, Q8NI35, sequence (Q8NI35 1058-1167): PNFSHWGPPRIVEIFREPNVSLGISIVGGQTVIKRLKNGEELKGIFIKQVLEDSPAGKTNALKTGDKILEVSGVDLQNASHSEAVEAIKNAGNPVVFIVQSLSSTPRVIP
DLG4_3, P78352, sequence (P78352 306-403): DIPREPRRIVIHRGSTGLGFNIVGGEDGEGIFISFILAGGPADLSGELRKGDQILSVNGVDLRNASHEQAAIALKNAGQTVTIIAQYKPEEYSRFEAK
NHERF2_2, Q15599, sequence (Q15599 142-238): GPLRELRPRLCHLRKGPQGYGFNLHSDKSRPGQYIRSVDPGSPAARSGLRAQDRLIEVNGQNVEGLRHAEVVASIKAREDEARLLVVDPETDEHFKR
DLG5_1, Q8TDM6, sequence (Q8TDM6 617-713): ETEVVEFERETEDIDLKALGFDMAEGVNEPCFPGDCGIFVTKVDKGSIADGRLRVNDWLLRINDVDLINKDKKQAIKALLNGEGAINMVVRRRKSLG
NOS1, P29475, sequence (P29475 9-101): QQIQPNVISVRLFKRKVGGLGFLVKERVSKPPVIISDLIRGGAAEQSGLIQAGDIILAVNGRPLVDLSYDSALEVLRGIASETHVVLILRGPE
IL16_4, Q14005, sequence (Q14005 1229-1329): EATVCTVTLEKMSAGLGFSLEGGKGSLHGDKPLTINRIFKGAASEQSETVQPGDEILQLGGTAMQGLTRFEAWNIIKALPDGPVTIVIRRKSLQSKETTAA
Inadl_2, Q8NI35, sequence (Q8NI35 238-335): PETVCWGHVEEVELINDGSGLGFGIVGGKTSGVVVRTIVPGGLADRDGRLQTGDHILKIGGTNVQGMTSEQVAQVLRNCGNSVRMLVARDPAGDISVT
Inadl_9, Q8NI35, sequence (Q8NI35 1530-1615): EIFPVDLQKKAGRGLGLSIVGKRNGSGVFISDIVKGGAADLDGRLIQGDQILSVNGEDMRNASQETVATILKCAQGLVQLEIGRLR

Binder: LAHVKHKEQI [AQP3, Q92482]
- pKd (AHNAK1, Q09666): below the threshold
- pKd (APBA3_1, O96018): below the threshold
- pKd (DLG1_3, Q12959): below the threshold
- pKd (DLG3_3, Q92796): below the threshold
- pKd (DLG4_3, P78352): below the threshold
- pKd (DLG5_1, Q8TDM6): below the threshold
- pKd (FRMPD3, Q5JV73): below the threshold
- pKd (GRASP, Q7Z6J2): below the threshold
- pKd (IL16_4, Q14005): below the threshold
- pKd (Inadl_2, Q8NI35): below the threshold
- pKd (Inadl_6, Q8NI35): below the threshold
- pKd (Inadl_9, Q8NI35): below the threshold
- pKd (LIN7B, Q9HAP6): below the threshold
- pKd (LRRC7, Q96NW7): below the threshold
- pKd (MAGI1_2, Q96QZ7): below the threshold
- pKd (MAST1, Q9Y2H9): below the threshold
- pKd (MPDZ_10, O75970): below the threshold
- pKd (MPP6, Q9NZW5): below the threshold
- pKd (NHERF2_2, Q15599): below the threshold
- pKd (NHERF4_1, Q86UT5-2): below the threshold
- pKd (NOS1, P29475): below the threshold
- pKd (PARD3B_1, Q8TEW8): below the threshold
- pKd (PARD3_3, Q8TEW0): below the threshold
- pKd (RADIL, Q96JH8): below the threshold
- pKd (SNTG2, Q9NY99): below the threshold
- pKd (SNX27, Q96L92): below the threshold
- pKd (SYNJ2BP, P57105): below the threshold
- pKd (TJP2_1, Q9UDY2): below the threshold

Binder: EDPRVEVTQF [SLC22A9, Q8IVM8]
- pKd (AHNAK1, Q09666): below the threshold
- pKd (APBA3_1, O96018): below the threshold
- pKd (DLG1_3, Q12959): below the threshold
- pKd (DLG3_3, Q92796): below the threshold
- pKd (DLG4_3, P78352): below the threshold
- pKd (DLG5_1, Q8TDM6): below the threshold
- pKd (FRMPD3, Q5JV73): below the threshold
- pKd (GRASP, Q7Z6J2): 5.02
- pKd (IL16_4, Q14005): below the threshold
- pKd (Inadl_2, Q8NI35): below the threshold
- pKd (Inadl_6, Q8NI35): below the threshold
- pKd (Inadl_9, Q8NI35): below the threshold
- pKd (LIN7B, Q9HAP6): 3.83
- pKd (LRRC7, Q96NW7): below the threshold
- pKd (MAGI1_2, Q96QZ7): below the threshold
- pKd (MAST1, Q9Y2H9): 4.75
- pKd (MPDZ_10, O75970): below the threshold
- pKd (MPP6, Q9NZW5): below the threshold
- pKd (NHERF2_2, Q15599): 4.61
- pKd (NHERF4_1, Q86UT5-2): 4.3
- pKd (NOS1, P29475): 3.63
- pKd (PARD3B_1, Q8TEW8): 4.26
- pKd (PARD3_3, Q8TEW0): below the threshold
- pKd (RADIL, Q96JH8): below the threshold
- pKd (SNTG2, Q9NY99): below the threshold
- pKd (SNX27, Q96L92): 5.39
- pKd (SYNJ2BP, P57105): below the threshold
- pKd (TJP2_1, Q9UDY2): below the threshold

Binder: RFQQRMQTHV [KIRREL1, Q96J84]
- pKd (AHNAK1, Q09666): below the threshold
- pKd (APBA3_1, O96018): below the threshold
- pKd (DLG1_3, Q12959): 3.68
- pKd (DLG3_3, Q92796): 3.94
- pKd (DLG4_3, P78352): 4.4
- pKd (DLG5_1, Q8TDM6): below the threshold
- pKd (FRMPD3, Q5JV73): below the threshold
- pKd (GRASP, Q7Z6J2): 4.35
- pKd (IL16_4, Q14005): below the threshold
- pKd (Inadl_2, Q8NI35): below the threshold
- pKd (Inadl_6, Q8NI35): below the threshold
- pKd (Inadl_9, Q8NI35): below the threshold
- pKd (LIN7B, Q9HAP6): below the threshold
- pKd (LRRC7, Q96NW7): below the threshold
- pKd (MAGI1_2, Q96QZ7): 5.41
- pKd (MAST1, Q9Y2H9): 4.76
- pKd (MPDZ_10, O75970): below the threshold
- pKd (MPP6, Q9NZW5): below the threshold
- pKd (NHERF2_2, Q15599): 3.57
- pKd (NHERF4_1, Q86UT5-2): 3.7
- pKd (NOS1, P29475): below the threshold
- pKd (PARD3B_1, Q8TEW8): below the threshold
- pKd (PARD3_3, Q8TEW0): below the threshold
- pKd (RADIL, Q96JH8): 3.9
- pKd (SNTG2, Q9NY99): below the threshold
- pKd (SNX27, Q96L92): 3.85
- pKd (SYNJ2BP, P57105): 4.61
- pKd (TJP2_1, Q9UDY2): 4.82

Binder: APIAGFSSFV [SDK2, Q58EX2]
- pKd (AHNAK1, Q09666): below the threshold
- pKd (APBA3_1, O96018): below the threshold
- pKd (DLG1_3, Q12959): below the threshold
- pKd (DLG3_3, Q92796): below the threshold
- pKd (DLG4_3, P78352): below the threshold
- pKd (DLG5_1, Q8TDM6): below the threshold
- pKd (FRMPD3, Q5JV73): below the threshold
- pKd (GRASP, Q7Z6J2): 4.44
- pKd (IL16_4, Q14005): below the threshold
- pKd (Inadl_2, Q8NI35): below the threshold
- pKd (Inadl_6, Q8NI35): 3.72
- pKd (Inadl_9, Q8NI35): 3.96
- pKd (LIN7B, Q9HAP6): below the threshold
- pKd (LRRC7, Q96NW7): 3.65
- pKd (MAGI1_2, Q96QZ7): below the threshold
- pKd (MAST1, Q9Y2H9): below the threshold
- pKd (MPDZ_10, O75970): below the threshold
- pKd (MPP6, Q9NZW5): below the threshold
- pKd (NHERF2_2, Q15599): 3.98
- pKd (NHERF4_1, Q86UT5-2): 3.59
- pKd (NOS1, P29475): 3.53
- pKd (PARD3B_1, Q8TEW8): 3.75
- pKd (PARD3_3, Q8TEW0): 3.56
- pKd (RADIL, Q96JH8): 5.17
- pKd (SNTG2, Q9NY99): below the threshold
- pKd (SNX27, Q96L92): 4.38
- pKd (SYNJ2BP, P57105): 4.72
- pKd (TJP2_1, Q9UDY2): 4.19
